Assay results reported in patent publication US20040235157A1.

Target: Type I interferon receptor (endogenous, on human promonocytic PIL5 cells derived from U937) (human) (UniProt P17181)
Assay: cell-based or functional assay

Sequence of UniProt P17181 (P17181 28-557, chain 1 of 2): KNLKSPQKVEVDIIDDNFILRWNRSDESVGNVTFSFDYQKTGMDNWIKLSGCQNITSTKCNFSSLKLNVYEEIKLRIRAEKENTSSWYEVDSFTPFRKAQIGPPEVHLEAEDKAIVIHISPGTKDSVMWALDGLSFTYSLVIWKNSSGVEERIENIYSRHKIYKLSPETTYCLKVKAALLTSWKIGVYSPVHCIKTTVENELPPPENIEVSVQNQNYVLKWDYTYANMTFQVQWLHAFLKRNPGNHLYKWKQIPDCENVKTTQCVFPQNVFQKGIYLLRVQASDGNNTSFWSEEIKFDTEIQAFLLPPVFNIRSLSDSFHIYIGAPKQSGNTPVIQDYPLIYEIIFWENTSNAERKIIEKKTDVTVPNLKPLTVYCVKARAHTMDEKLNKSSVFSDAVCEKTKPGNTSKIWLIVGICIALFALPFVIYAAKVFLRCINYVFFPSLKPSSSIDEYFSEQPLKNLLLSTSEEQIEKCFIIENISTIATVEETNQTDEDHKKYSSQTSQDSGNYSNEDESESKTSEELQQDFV
Sequence of UniProt P17181 (P48551 27-515, chain 2 of 2, further chain): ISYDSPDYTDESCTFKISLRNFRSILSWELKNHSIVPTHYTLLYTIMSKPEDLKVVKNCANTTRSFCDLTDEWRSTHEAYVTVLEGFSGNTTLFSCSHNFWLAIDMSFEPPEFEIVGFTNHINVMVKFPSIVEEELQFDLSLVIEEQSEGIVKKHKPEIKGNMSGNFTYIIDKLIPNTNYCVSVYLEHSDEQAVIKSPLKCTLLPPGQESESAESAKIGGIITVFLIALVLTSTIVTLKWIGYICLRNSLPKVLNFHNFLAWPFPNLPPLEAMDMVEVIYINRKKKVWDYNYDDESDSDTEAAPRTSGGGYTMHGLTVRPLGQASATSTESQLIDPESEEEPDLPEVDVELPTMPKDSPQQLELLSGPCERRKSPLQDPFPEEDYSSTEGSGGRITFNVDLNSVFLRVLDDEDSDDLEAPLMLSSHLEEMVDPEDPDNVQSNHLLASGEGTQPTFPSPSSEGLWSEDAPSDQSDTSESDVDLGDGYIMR

luciferase gene reporter assay using PIL5 cells (lowest detectable IFN activity)	Substance
< 1 IU/ml	human IFN α (standard preparation of human interferon alpha) (ligand)
< 1 IU/ml	IFNβ (from UniProt P01574 22-187) (ligand)
